# According to the DeepSol protein solubility set:
# Assay: soluble on expression in E. coli; label from the status in PepcDB or PDB records
row,Sequence,soluble on expression in E. coli
1,MGSDKIHHHHHHMIYKADNNVRQKLVEMFDDFDSTIVLSYLQGHMGSAWVDNLENPTVAQITVGIFVFYAGNPNAEEAEELLYNLPDFTLAIVDSDEWKKRIETVHKGSIEKFQRFRFNKNPGDLDKEYIRDILSTLPQNYEMKKIDKDIAKASSFHALSEDFTSQFDSIDDFIDRGVGYAILNKGQVVSAATSFSIFDDGIEIEIASHPEHRRKGLAKIVASALILDCLDREKYPSWDGANVESVELAKKLGYTFKEPYDTYFIQIKK,not soluble
2,MTTQSTLQSVPALGTHPASGSNPSRAETREQLSKASYDLLVIGGGILGISTAWHAAQSGLRVAVVDAGDFAGATSSASSKLLHGGLRYLQTGAVKLVAENHFERRAVSRQVAPHLANPLTFYLPVYKGGPHGAAKLGAGVFAYSALSAFGDGVGHLLSPAKAAQDVPELRTDNLKAVAVYGDDQMNDARMALMTVRAAVESGAVVLNHAEVTGLRFTGGRVTGAELKDRLSGDEFGVNARLVLNATGPWVDHLRRMEDPAAAPSIRLSKGAHLVLKRTAPWKAALATPIDKYRITFALPWEDMLLLGTTDEEFEGDPADVAVNDKDITQILDEAAFSIRDQQLDRDLITYSFAGLRVLPGGPGDTAKAKRETVVTEGRGGMLSVAGGKWTTFRHIGRTVMKKLEALPGHPLGDDFEPIASLPKKLPLPGVANPRAVAHRLLVDGSAPGPRMAADTARHLATHYGSLAFDIARLANESPELARRVHPDAPEIWAQVVWARDNEWAETADDVLRRRTTLTIRGLATDDVRAQVQDVLDKKLEHHHHHH,not soluble
3,MQMQPKVGQFRYYPSVGSLNTYLTNMLEKIRVELPDIQRISFALYDEKKDSIKTCADSSPVSHDFVHYELPLANLPSLQQSKESGALRIIHDLANQAKSHTPHNRWLLEQQYCSSLVKPVFDQHTFVGFLFFNASMSHYFSASVVERLETYLSLIQQSICGEYALIHQLVDHVHQIETQSPEHWLHIKQHKERISRYARIIALDVADQYALDDELIENISQFATCHDLGKLALPADLLQKRASLANHEKEQVHNHIEYGIDLLNEVIAKLGTPHHPCLAVLREIMAYHHEFLDGSGYPFGLVSDQIPIPARIIAVANIFDALTAHRPYKQAQSIPHALLELEKMVSDGKLDRHCVNALRENQEELKEIVARFPEQDPKDQGITH,not soluble
4,MSNGQLVSQVTVGHDKPLDREKVCPMLLRVFVANNRHNPMSEYNSRNGGSVPPSELQMHTWMDCSLRELTSLIKEVNPDARRKGTTFDFAIVQADRGSPRYILRDVGNTTNGERGIDDNKTLQQCKFEVGDFVDVAISLPSQGRRFNNREQGDRFDHRQRQRSPIR,not soluble
5,GPVDPAEYDAVWSAWRRAAPAEESRGRAAVVQKMRACLNNGNAVLNVGESGLTTLPDCLPAHITTLVIPDNNLTSLPALPPELRTLEVSGNQLTSLPVLPPGLLELSIFSNPLTHLPALPSGLCKLWIFGNQLTSLPVLPPGLQELSVSDNQLASLPALPSELCKLWAYNNQLTSLPMLPSGLQELSVSDNQLASLPTLPSELYKLWAYNNRLTSLPALPSGLKELIVSGNRLTSLPVLPSELKELMVSGNRLTSLPMLPSGLLSLSVYRNQLTRLPESLIHLSSETTVNLEGNPLSERTLQALREITSAPGYSGPIIRFDMAGASAPRETRALHLAAADWLVPAREGEPAPADRWHMFGQEDNADAFSLFLDRLSETENFIKDAGFKAQISSWLAQLAEDEALRANTFAMATEATSSCEDRVTFFLHQMKNVQLVHNAEKGQYDNDLAALVATGREMFRLGKLEQIAREKVRTLALVDEIEVWLAYQNKLKKSLGLTSVTSEMRFFDVSGVTVTDLQDAELQVKAAEKSEFREWILQWGPLHRVLERKAPERVNALREKQISDYEETYRMLSDTELRPSGLVGNTDAERTIGARAMESAKKTFLDGLRPLVEEMLGSYLNV,soluble
6,SDNDLKLLALESETIRSVADLHNKRVGMIRASASEFYFDSLLLANNLKGIPIDKVYGTADQLYQQLFDKQLDAISIWEPWGYKIGVAAESKVTNLSLPGIYTLSFNLLTMKPTTEEEKQRSLAILKA,not soluble
7,MTPNRRSTDSYNMLGASFDFDPDFSLLSNKTHKNKNPKPPVKLLPYRHGSNTTSSDSDSYIFNSGSGSSDAETPAPVAPIFISLEDVLLNGQLIDFAIDPSGVKFLEANYPLDSEDQIRKAVFEKFTESTTLFVGLCHSRNGNFIVQKLVELATPAEQRELLRQMIDGGLLAMCKDKFACRVVQLALQKFDHSNVFQLIQELSTFDLAAMCTDQISIHVIQRVVKQLPVDMWTFFVHFLSSGDSLMAVCQDKYGCRLVQQVIDRLAENPKLPCFKFRIQLLHSLMTCIVRNCYRLSSNEFANYVIQYVIKSSGIMEMYRDTIIDKCLLRNLLSMSQDKYASHVIEGAFLFAPPALLHEMMEEIFSGYVKDVESNRDALDILLFHQYGNYVVQQMISICTAALIGKEERELPPAILLLYSGWYEKMKQRVLQHASRLERFSSGKKIIDSVMRHGVPTAAAVNAQAAPSLMELTAQFDAMFPSFLAR,not soluble
8,MHANGIFFVPKYSSKYGKKQQTEKQWPVPEMGWQPGAVNSNFALQSSALILIGGFIRIIKVDSNATSCIHFGGIDAKPLLLQMNAYSLPAAEIRTKNGRIVARVF,not soluble
9,MKTIGLLGGMSWESTIPYYRLINEGVKARLGGLHSASLVLHSVDFHDIEACQSAGDWDRAGEILAEAAVGLQQAGAEGIVLCTNTMHKVADAIAARCQVPFLHIADATGRAIAAKGQRRVALLGTRYTMEQTFYRGRLQEQFAIETLIPEADDRAQINQIIFDELCLGTFSEASRDYYLQTIAALAEQGAEGVIFGCTEIGLLVPAELSPLPVFDTAAIHAEDAVNFMLSAGPTPAA,not soluble
10,MSVSPVQPDPSVIGGVPKAPFVLKPNLARLFNDRASRFEALAQGSHLAPYLNFLAGITRIQSELVSALPPPEPVPADRVERARANAMPPIDRAAMGGSPDCREVLQQFFEKAEALEKPAAAAEALAQVRTADEEMLTWMIGNVMADDLPVESLAHHLYVAAAMQIQAARLAAGLDGSRLVPIRVGVCPACGGRPVASMVIGFHGAEGARYASCSCCATMWNEVRVKCLACGSTKGIGYQAVETGDEEATVKAEVCDTCNSWMKILYQNKNPSLDVVADDVASLGLDLLMKDTEYKRAGFDPFLMGY,not soluble
11,MKQLTLAKTVKGVGIGLHKGEPIEITLEPLEANSGIVFFRSDLNASYKASPENVINTQMATVLGDDRGFISTIEHLMSAINAYGIDNVRIVLNANEAPVMDGSSISFCMMLDEAGVKELDAPKKIMVIKKPIEVRDGNKFVRLTPTKEPRINYTIKFDNAVIGEQSYNFEFSKKNYIENIARARTFGFLKDVQALRSMNLALGGSLENTIVVDENRILNPEGLRFKDEFVRHKILDAIGDLTLLGYRVFGDYTSYAGSHHLNHLLTKEVLKDKDAYEIVSLEKTTQKAYEKVFALEHHHHHH,soluble
12,SDEINAQSVWSEEISSNYPLCIKNLMEGLKKNHHLRYYGRQQLSLFLKGIGLSADEALKFWSEAFTNMTMEKFNKEYRYSFRHNYGLEGNRINYKPWDCHTILSKPRPGRGDYHGCPFRDWSHERLSAELRSMKLTQAQIISVLDSCQKGEYTIACTKVFEMTHNSASADLEIGEQTHIAHPNLYFERSRQLQK,soluble
13,AFEKKTANIYTYKSTSGVTSFSDIEPLDVDFSRYRFDCYACEVDSLIDWRKATLYLQPYKNDINKAALKYDIDPAFVRAVIHAESHFNPQAVSKQGAQGLMQLMPATAKELGVRNSLSAQQNIKGGVKHLARLLRKYKGDNKLASAAYNAGEGAVKRHGGIPPYKETQVYVERVGILHQRYGRFSH,not soluble
14,MRIFERYNPSKVAKYVKTLFRGRLYIKGVGAFEFDYGKILLPKKQDKQHLLVMSEVNRQVIRLQAEMGLEHHHHHH,not soluble
15,GPGSMAGKGNAKVVVTHPKSRKVRQLQRQSRREKRISEQKGKRNAKAALEAARFFWFREQCLALGRTKLAFSREEAQVLTEQYLKRNDEEIVALKSMRNPTAGRIKILEAMKTSEADDFNSSKGIVIPDITNSDNLEILTSIWDGRADTAGVVRRVGLTRTGVSPAAPAVTELEGKLLTIDEVRERSIDFTSRKARKFQTMKRVQSVKKTPTAEDVWLRSKKRGVDLQAKRLRQGREAVLKTRRAN,soluble
16,MLAQCFQPNSSGIYPQEKLPLILETGVSPDYALIDSGNGKKLERYGAYRIIRPEGQALWKPALSEKHWANVDAIFTGNRDEEGVGRWYFPKKPLDETWPLSWNGLSFLGRFTSFRHVGVFPEQDAHWRFMEKQIVNATRPIKLLNLFGYTGIASLISARAGANVTHVDASKKAIAWAKANQEKAGLSDRSIRWICDDAVKFVERELRRQKTYDMILLDPPAYGRGPHGEIWQLFDHLPAMITNCRKLLSDEPLAVVLTAYSIRASFYALHTLMRDEFINLGGTVESGELILREKTTGRALSTSLFSRWIA,not soluble
17,SMPKDVGILALEVYFPAQYVDQTDLEKYNNVEAGKYTVGLGQTRMGFCSVQEDINSLCLTVVQRLMERIQLPWDSVGRLEVGTETIIDKSKAVKTVLMELFQDSGNTDIEGIDTTNACYGGTASLFNAANWMESSSWDGRYAMVVCGDIAVYPSGNARPTGGAGAVAMLIGPKAPLALERGLRGTHMENVYDFYKPNLASEYPIVDGKLSIQCYLRALDRCYTSYRKKIQNQWKQAGSDRPFTLDDLQYMIFHTPFCKMVQKSLARLMFNDFLSASSDTQTSLYKGLEAFGGLKLEDTYTNKDLDKALLKASQDMFDKKTKASLYLSTHNGNMYTSSLYGCLASLLSHHSAQELAGSRIGAFSYGSGLAASFFSFRVSQDAAPGSPLDKLVSSTSDLPKRLASRKCVSPEEFTEIMNQREQFYHKVNFSPPGDTNSLFPGTWYLERVDEQHRRKYARRPV,soluble
18,MSESVQSNSAVLVHFTLKLDDGTTAESTRNNGKPALFRLGDASLSEGLEQHLLGLKVGDKTTFSLEPDAAFGVPSPDLIQYFSRREFMDAGEPEIGAIMLFTAMDGSEMPGVIREINGDSITVDFNHPLAGQTVHFDIEVLEIDPALEA,soluble
19,MGSDKIHHHHHHGFESDNANKAGYTPELQEYDLQKYVLNLGVMQQGIYFNYDWGRGTDWTFQTIQNLGHDMFAGYFHDMNNSFNDKNSVYALNDGWTGSAWTYTYGYIMTAAQKSEKINQEQKGLLGVTKILKVELMHRIADTYGPIVYTKFGQEEGDNVDSQEAAYRQFFKDLDEGVKLINEYKKDNAALEPFAAADILMPAGKRTLSQWVKFANSLRLRLAIRVSMSAPDLARAEVAKAMDATAGGVLESADETVAVSTESGYKNPLGTVNEGWGEVFMGATMESVLVGYNDPRLIKYYSKAEGGDIKDEKGNLIIAERNKIAGTYKGVPQGTGVTVKDENRYRLHSKSTITKQTDAILMTAAEVWFLRAEAALRGFTSENVKDCYEKGITVSCQQWGVNVGDYLTSDATPSDYVDAFEAKYDVKALIKVTPKWDGGASPEEQLERILTQKWIACYPEGYEAWTEQRRTGYPQLFKVFVNNSGGAIDTNIRIRRLPYPSDIQKNNPTQYSALKKALGGEDNGGTRLWWDTGRNF,not soluble
20,MLIKRLAFAIMTLVIMTSAGCGFKLQRSYQIPEQLNQLSLSSSDEYSELTRLVRERLRLNNVKIVDAANDVPVLRLITDSLERSTLSLYPTGNVAEYELIYFVEFAVALPGKEAQPFKIEIRRDYLDDPRTALAKSREMELLVKEMRIQAADRILQSMASTEVNLEHHHHHH,soluble
